Columns and labels:
[1] = target: Tau in cerebrospinal fluid of cynomolgus monkeys (free Tau / extracellular Tau, eTau) (cynomolgus monkey (Macaca fascicularis)); assay: cell-based or functional assay
[2] = target: Tau in cerebrospinal fluid of cynomolgus monkeys (free Tau / extracellular Tau, eTau) (cynomolgus monkey (Macaca fascicularis)); assay: estimate from a PK/PD model fitted to free eTau (ELISA) in CSF of cynomolgus monkeys dosed with hu-IPN002; not a direct binding assay

B1: hu-IPN002 (antibody, IgG4, V domains shown)
VH: EVHLVESGGALVKPGGSLRLSCAASGFSFSKYGMSWVRQAPGKGLEWVATISSSGSRTYYPDSVKGRFTISRDNAKNTLYLQMNSLRAEDTAMYYCSISWDGAMDYWGQGTTVTVSS
VL: DVVMTQSPLSLPVTLGQPASISCKSSQSIVHSNGNTYLEWYLQKPGQSPQLLVYKVSNRFSGVPDRFSGSGSGTDFTLKISRVEAEDVGTYYCFQGSLVPWAFGGGTKVEIK
free eTau level in CSF between 8 and 168 hours, 20 mg/kg dose (% of baseline) [1]: 1.35 to 7.44
free eTau level in CSF between 48 and 96 hours, 5 mg/kg dose (% of baseline) [1]: 17.3 to 21
maximal reduction of CSF free eTau, single 5 mg/kg IV dose in cynomolgus monkeys [1]: 83%
maximal reduction of CSF free eTau, single 20 mg/kg IV dose in cynomolgus monkeys [1]: 99%
Kd [2]: 0.16 nM

— patent publication US20160289309A1
